B1: BMPRII extracellular domain (ECD), wild type [human] / Recombinant human BMP10 growth factor (GF)-domain (R&D Systems) [human] (parent)
chain 1: SQNQERLCAFKDPYQQDLGIGESRISHENGTILCSKGSTCYGLWEKSKGDINLVKQGCWSHIGDPQECHYEECVVTTTPPSIQNGTYRFCCCSTDLCNVNFTENFPPPDTTPLSPPHSFNRDET
chain 2: NAKGNYCKRTPLYIDFKEIGWDSWIIAPPGYEAYECRGVCNYPLAEHLTPTKHAIIQALVHLKNSQKASKACCVPTKLEPISILYLDKGVVTYKFKYEGMAVSECGCR

Variants of B1 are the subject of assay [1]. As to the kind of experiment: SPR (Biacore). The settings on record: with Recombinant human BMP10 growth factor (GF)-domain (R&D Systems) [human], BMP10 immobilised on a CM5 Biacore chip.
Assay [2] covers variants of B1. Description: ELISA (prodomain displacement). The settings on record: with BMP10 growth factor (GF)-domain from Pro:BMP10 made in HEK EBNA cells [human]; BMPRII ECD at 125x excess over Pro:BMP10; lower reading = more prodomain displaced; parent: 0.42; read off a plot.
Assay [3] covers variants of B1. Description: native PAGE prodomain displacement (densitometry). Particulars: with BMP10 growth factor (GF)-domain from Pro:BMP10 made in HEK EBNA cells [human], lower ratio = more prodomain displaced, read off a plot.
Setting [4] is: BMPRII ECD at 2-fold excess (2x) over Pro:BMP10, parent: 0.59.
The mark [5] stands for this setting: BMPRII ECD at 5-fold excess (5x) over Pro:BMP10, parent: 0.46.

For chain 1 SQNQERLCAFKDPYQQDLGIGESRISHENGTILCSKGSTCYGLWEKSKGDINLVKQGCWSHIGDPQECHYEECVVTTTPPSIQNGTYRFCCCSTDLCNVSFTENFPPPDTTPLSPPHSFNRDET [chain 1 N100S], the Kd (usually the constant that tells how readily two partners part at equilibrium) in assay [1] (parent: 1.19e+03 nM) stood at 1320 nM. Besides, the koff (as a rule, a measure of how fast the partners let go of each other) in assay [1] (parent: 0.161) came out at 0.14 s⁻¹. The kon – broadly, the rate constant with which the complex forms – in assay [1] (parent: 1.35e+05) was 106000 M⁻¹ s⁻¹. The figures for the screen value in assay [2], in assay [3] (setting [4]) and in assay [3] (setting [5]) were 0.52, 0.64 and 0.39, respectively.

For the variant chain 1 SQNQERLCAFKDPYQQDLGIGESRISHENGTILCSKGSTCYGLWEKSKGDINLVKQGCWSHIWDPQECHYEECVVTTTPPSIQNGTYRFCCCSTDLCNVNFTENFPPPDTTPLSPPHSFNRDET [chain 1 G63W], the screen value was 0.67 in assay [2], 0.9 in assay [3] (setting [4]) and 0.77 in assay [3] (setting [5]).

In the case of chain 1 SQNQERLCAFKDPYQQDLGIGESRISHENGTILCSKGSTCYGLWEKSKGDINLVKQGCWSHIEDPQECHYEECVVTTTPPSIQNGTYRFCCCSTDLCNVNFTENFPPPDTTPLSPPHSFNRDET [chain 1 G63E], the screen value came out at 0.75 in assay [2], 0.99 in assay [3] (setting [4]) and 0.93 in assay [3] (setting [5]).

For chain 1 SQNQERLCAFKDPYQQDLGIGESRISHENGTILCSKGSTCYGLWEKSKGDINLVKQGCWSHIADPQECHYEECVVTTTPPSIQNGTYRFCCCSTDLCNVNFTENFPPPDTTPLSPPHSFNRDET [chain 1 G63A], the screen value is 0.57 in assay [2], 0.78 in assay [3] (setting [4]) and 0.6 in assay [3] (setting [5]).

As to chain 1 SQNQERLCAFKDPYQQDLGIGESRISHENGTILCSKGSTCCGLWEKSKGDINLVKQGCWSHIGDPQECHYEECVVTTTPPSIQNGTYRFCCCSTDLCNVNFTENFPPPDTTPLSPPHSFNRDET [chain 1 Y41C], the screen value in assay [2] amounted to 1; in assay [3] (setting [4]) it was 0.93; in assay [3] (setting [5]), 0.88.

Regarding chain 1 SQNQERLCAFKDPYQQDLGIGESRISHENGTILCSKGSTCYGLWEKSKGDINLVKQECWSHIGDPQECHYEECVVTTTPPSIQNGTYRFCCCSTDLCNVNFTENFPPPDTTPLSPPHSFNRDET [chain 1 G57E], the screen value in assay [2] was 1; in assay [3] (setting [4]) it was 0.93; in assay [3] (setting [5]) it was 0.88.

chain 1 SQNQERLCAFKDPYQQDLGIGESRISHENGTILCSKGSTCYGLWEKSKGDINLVKQGCWSHIGDPQECHYEECVVTTTPPPIQNGTYRFCCCSTDLCNVNFTENFPPPDTTPLSPPHSFNRDET [chain 1 S81P]: the screen value in assay [2] worked out at 0.3; in assay [3] (setting [4]) it was 0.7; in assay [3] (setting [5]), 0.66.

Consider chain 1 SQNQERLCAFKDPYQQDLGIGESRISHENGTILCSKGSTCYDLWEKSKGDINLVKQGCWSHIGDPQECHYEECVVTTTPPSIQNGTYRFCCCSTDLCNVNFTENFPPPDTTPLSPPHSFNRDET [chain 1 G42D], for which the results for the screen value in assay [2], in assay [3] (setting [4]) and in assay [3] (setting [5]) were 0.95, 0.82 and 0.72, respectively.

With chain 1 SQNQERLCAFKDPYQQDLGIGESRISHENGTILCSKGSTCYGLWEKSKGDINLVKQGCWSHIGDPQECHYEKCVVTTTPPSIQNGTYRFCCCSTDLCNVNFTENFPPPDTTPLSPPHSFNRDET [chain 1 E72K], the values for the screen value in assay [2], in assay [3] (setting [4]) and in assay [3] (setting [5]) were 0.42, 0.49 and 0.19, respectively.

As to chain 1 SQNQERLCAFKDPYQQDLGIGESRISHENGTILCSKGSTCYGLWEKSKGDINLVKQGCWSHIGDPHECHYEECVVTTTPPSIQNGTYRFCCCSTDLCNVNFTENFPPPDTTPLSPPHSFNRDET [chain 1 Q66H], the values for the screen value in assay [2], in assay [3] (setting [4]) and in assay [3] (setting [5]) were 0.47, 0.77 and 0.55, respectively.

The values above are taken from paper PMC9064986.
